Test results as given in patent publication US20130136748A1 (Ablynx, published 2013).
Positions count from the first letter of the chain named. Numbers in names are those of the source. Like-named read-outs stand apart in the source and are kept apart here.

T1: cHER3ECD (Maccaca fascicularis HER3 extracellular domain) (Macaca fascicularis, UniProt P21860 20-643 (human entry))
T1 construct: also called cyno HER3ECD; cyno HER3-ECD
T1 chain: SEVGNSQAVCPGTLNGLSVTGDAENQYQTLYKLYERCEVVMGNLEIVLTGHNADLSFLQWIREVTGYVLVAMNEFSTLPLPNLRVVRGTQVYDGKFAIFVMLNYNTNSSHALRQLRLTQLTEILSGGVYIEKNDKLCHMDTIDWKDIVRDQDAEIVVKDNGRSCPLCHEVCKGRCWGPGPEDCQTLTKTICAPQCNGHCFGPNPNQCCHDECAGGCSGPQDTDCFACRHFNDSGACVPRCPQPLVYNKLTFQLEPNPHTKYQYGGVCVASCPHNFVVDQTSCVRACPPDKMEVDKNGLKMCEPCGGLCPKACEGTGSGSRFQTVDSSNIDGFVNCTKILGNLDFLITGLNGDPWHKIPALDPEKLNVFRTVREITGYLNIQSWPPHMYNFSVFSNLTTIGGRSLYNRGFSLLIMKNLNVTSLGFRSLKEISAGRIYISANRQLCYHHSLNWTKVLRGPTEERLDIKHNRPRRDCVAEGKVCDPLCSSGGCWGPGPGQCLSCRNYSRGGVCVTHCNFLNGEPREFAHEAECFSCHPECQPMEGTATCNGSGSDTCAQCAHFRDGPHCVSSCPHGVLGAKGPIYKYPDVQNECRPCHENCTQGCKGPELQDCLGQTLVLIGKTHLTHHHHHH

T2: Chimeric chicken Her3-human domain 1 (AA1-206 human, AA207-642 chicken) (chicken/human chimera)
T2 construct: Transmembrane and extracellular regions, on HEK293 cells
T2 chain: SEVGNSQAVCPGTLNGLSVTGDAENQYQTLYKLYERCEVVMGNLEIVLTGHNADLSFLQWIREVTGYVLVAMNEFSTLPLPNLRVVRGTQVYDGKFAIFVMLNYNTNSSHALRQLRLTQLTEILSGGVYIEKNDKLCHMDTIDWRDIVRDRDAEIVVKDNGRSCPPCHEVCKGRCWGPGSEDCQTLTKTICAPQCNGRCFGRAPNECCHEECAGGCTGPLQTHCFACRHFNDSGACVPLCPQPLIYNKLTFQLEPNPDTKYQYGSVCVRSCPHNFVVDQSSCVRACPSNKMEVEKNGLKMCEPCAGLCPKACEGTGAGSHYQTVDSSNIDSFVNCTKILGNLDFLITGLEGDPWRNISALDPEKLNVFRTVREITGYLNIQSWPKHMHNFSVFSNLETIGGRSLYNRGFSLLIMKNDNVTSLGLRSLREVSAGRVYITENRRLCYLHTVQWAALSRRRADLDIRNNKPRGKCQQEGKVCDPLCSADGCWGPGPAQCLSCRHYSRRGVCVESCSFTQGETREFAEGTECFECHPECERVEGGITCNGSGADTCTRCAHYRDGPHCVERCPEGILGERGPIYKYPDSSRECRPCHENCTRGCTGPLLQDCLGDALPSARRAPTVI

B1: 18B05 (VHH)
VHH: EVQLVESGGGLVQAGGSLRLSCAASGLTFGSAPMGWYRQAPGKERELVAYISGDERIWYGDSVKGRFTISRDTTKNTLYLQMNSLKPEDTAVYYCVSDVKVRHWGQGTQVTVSS
B2: HER3MS00076 (VHH)
VHH: EVQLVESGGGLVQPGGSLRLSCAASGSIGGLNAMAWYRQAPGKERELVAGIFGVGSTRYADSVKGRFTISRDISKNTVFLQMNSLRSEDTAVYYCRMSSVTRGSSDYWGQGTLVTVSS
notes: 17B05 + A74S, N83R, Q108L; also called HER3MS0076; 17B05 basic variant
B3: HER3MS00085 (VHH)
VHH: B2 VHH with S87A
notes: 17B05 basic + S84A; also called HER3MS0085
B4: HER3MS00084 (VHH)
VHH: B2 VHH with S87P
notes: 17B05 basic + S84P; also called HER3MS0084
B5: HER3MS00080 (VHH)
VHH: B2 VHH with I73N, F79Y
notes: 17B05 basic + I73N + F79Y; also called HER3MS0080
B6: HER3MS00083 (VHH)
VHH: B2 VHH with I73N, F79Y, R96A
notes: also called HER3MS0083
B7: HER3MS00043 (VHH)
VHH: EVQLVESGGGLVQPGGSLRLSCAASGFTFSSYPMSWVRQAPGKGPEWVSTVSPGGITTSYADSVKGRFTISRDNSKNTLYLQMNSLRPEDTAVYYCLRDLNNRGQGTLVTVSS
notes: 04C07 basic + A46E; also called HER3MS0043
B8: HER3MS00044 (VHH)
VHH: B7 VHH with E46A, L97A
notes: 04C07 basic + L93A; also called HER3MS0044
B9: 18F05 (VHH)
VHH: EVQLVESGGGLVQPGGSLRLSCVASGFTFSSYWMYWVRQAPGKGVEWVSAISPGGVERYTDSVKGRFTISRDNAKNTLYLQMNSLKSEDTAMYYCARLTSFATPESQGTQVTVSS
notes: also called 18F5
B10: 17E08 (VHH)
VHH: EVQLVESGGGLVQPGGSLRLSCSASGSIFGLNAMGWYRQTPGKERELVAGITSITRVGSTRYADSAKGRFTISGDYAKNTVYLQMNSLKPEDTGVYYCRMSIVKSGGADYWGQGTQVTVSS

Legend:
[1] = molecular target: T3, human HER1 (human, UniProt P00533 25-1210); test: FACS, CHO-HER1
T3 construct: also called EGFR; ErbB1

[2] = molecular target: T4, human HER2 (human, UniProt P04626 23-1255); test: FACS, CHO-HER2
T4 construct: also called hHER2

[3] = molecular target: T5, human HER4 (human, UniProt Q15303 26-1308); test: FACS, CHO-HER4
[4] = molecular target: T3, human HER1; test: FACS CHO-HER1, 222 nM
[5] = molecular target: T3, human HER1; test: FACS CHO-HER1, 667 nM
[6] = molecular target: T4, human HER2; test: FACS CHO-HER2, 222 nM
[7] = molecular target: T4, human HER2; test: FACS CHO-HER2, 667 nM
[8] = molecular target: T5, human HER4; test: FACS CHO-HER4, 222 nM
[9] = molecular target: T5, human HER4; test: FACS CHO-HER4, 667 nM
[10] = molecular target: T3, human HER1; test: FACS CHO-HER1, 2000 nM
[11] = molecular target: T4, human HER2; test: FACS CHO-HER2, 2000 nM
[12] = molecular target: T5, human HER4; test: FACS CHO-HER4, 2000 nM
[13] = molecular target: T6, hHER3 full length (human, UniProt P21860 20-1342); test: cell-based or functional assay
[14] = molecular target: T6, hHER3 full length; test: cell-based or functional assay; remark: listed apart in the source
[15] = molecular target: T7, hHER3 ECD (human HER3 extracellular domain) (human, UniProt P21860 20-643); test: ELISA, coated hHER3-ECD
T7 construct: also called recombinant HER3-ECD

[16] = molecular target: T1, cHER3ECD (Maccaca fascicularis HER3 …); test: ELISA, coated cHER3-ECD
[17] = molecular target: T2, Chimeric chicken Her3-human domain 1 …; test: FACS, HEK293 with chimeric HER3
[18] = molecular target: T8, human HER3-Fc (R&D Systems, 348-RB) (human, UniProt P21860 20-643); test: SPR, HER3-Fc captured by anti-Fc
T8 construct: Bought; also called hHER3-Fc; Fc-HER3; Fc part of the bought chimera not given, not described

[19] = molecular target: T6, hHER3 full length; test: FACS, 400 nM, competitor 04C07-biotin
[20] = molecular target: T6, hHER3 full length; test: FACS, 400 nM, competitor 04F10-biotin
[21] = molecular target: T6, hHER3 full length; test: FACS, 400 nM, competitor 17C08-biotin
[22] = molecular target: T6, hHER3 full length; test: FACS, 400 nM, competitor 18E08-biotin
[23] = molecular target: T6, hHER3 full length; test: FACS, 400 nM, competitor 21B02-biotin
[24] = molecular target: T6, hHER3 full length; test: FACS, 400 nM, competitor 23F05-biotin
[25] = molecular target: T6, hHER3 full length; test: FACS competition with HRG1-β1-EGF, CHO-HER3
[26] = molecular target: T7, hHER3 ECD (human HER3 extracellular …); test: SPR off rate on HER3-ECD
[27] = molecular target: T8, human HER3-Fc (R&D Systems, 348-RB); test: HRG competition alphascreen
[28] = molecular target: T8, human HER3-Fc (R&D Systems, 348-RB); test: HRG competition alphascreen; remark: listed apart in the source

T5 sequence (Q15303 26-1308 limits assumed): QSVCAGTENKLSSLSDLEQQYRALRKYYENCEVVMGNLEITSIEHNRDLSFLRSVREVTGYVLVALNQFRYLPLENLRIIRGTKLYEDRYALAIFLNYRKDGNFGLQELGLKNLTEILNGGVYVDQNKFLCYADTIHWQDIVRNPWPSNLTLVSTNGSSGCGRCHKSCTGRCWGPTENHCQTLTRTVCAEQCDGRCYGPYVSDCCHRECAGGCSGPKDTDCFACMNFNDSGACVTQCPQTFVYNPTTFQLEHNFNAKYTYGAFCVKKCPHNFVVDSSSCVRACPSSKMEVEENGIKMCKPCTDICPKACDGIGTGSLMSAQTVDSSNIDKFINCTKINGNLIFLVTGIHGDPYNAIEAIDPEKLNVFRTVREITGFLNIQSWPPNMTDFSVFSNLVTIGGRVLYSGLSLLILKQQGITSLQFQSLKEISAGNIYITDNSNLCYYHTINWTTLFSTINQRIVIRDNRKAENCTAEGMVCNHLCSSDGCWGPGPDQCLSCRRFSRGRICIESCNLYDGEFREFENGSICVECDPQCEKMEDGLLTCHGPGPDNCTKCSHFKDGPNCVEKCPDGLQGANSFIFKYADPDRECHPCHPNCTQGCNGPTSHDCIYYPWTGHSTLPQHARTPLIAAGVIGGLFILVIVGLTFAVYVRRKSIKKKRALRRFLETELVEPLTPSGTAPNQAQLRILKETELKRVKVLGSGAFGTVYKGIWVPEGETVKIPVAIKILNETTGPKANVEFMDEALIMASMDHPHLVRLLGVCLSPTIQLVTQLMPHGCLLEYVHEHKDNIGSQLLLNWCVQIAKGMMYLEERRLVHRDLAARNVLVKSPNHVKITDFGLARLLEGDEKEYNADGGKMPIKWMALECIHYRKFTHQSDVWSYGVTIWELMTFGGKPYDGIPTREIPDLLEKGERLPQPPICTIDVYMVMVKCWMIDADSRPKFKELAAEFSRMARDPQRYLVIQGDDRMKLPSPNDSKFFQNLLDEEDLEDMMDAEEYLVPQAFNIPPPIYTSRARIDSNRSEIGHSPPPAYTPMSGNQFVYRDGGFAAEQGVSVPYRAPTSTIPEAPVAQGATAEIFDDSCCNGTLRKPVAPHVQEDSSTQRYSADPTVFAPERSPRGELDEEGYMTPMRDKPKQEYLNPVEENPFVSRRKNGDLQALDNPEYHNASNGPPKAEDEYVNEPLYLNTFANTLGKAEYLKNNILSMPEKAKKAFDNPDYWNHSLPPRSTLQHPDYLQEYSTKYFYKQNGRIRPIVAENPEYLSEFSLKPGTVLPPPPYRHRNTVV

Binder | binding result [1] | binding result [2] | binding result [3] | MCF [4] | MCF [5] | MCF [6] | MCF [7] | MCF [8] | MCF [9] | MCF [10] | MCF [11] | MCF [12] | IC50, HRG1-β1 induced pHER3, MCF-7 [13] | IC50, HRG1-β1 induced pHER3, MDA-MB468 [13] | IC50, HRG1-β1 induced pAkt, MCF-7 [14] | EC50 [15] | EC50 [16] | binding result [17] | koff [26] | IC50 [27] | also measured
B1 | no binding (tested: 2000 nM) | no binding (tested: 2000 nM) | no binding (tested: 2000 nM) | 82 | 101 | 61 | 63 | 60 | 95 | 61 | 77 | 96 | 5.18e-09 M | 3e-08 M | 6.02e-09 M | 0.4 nM | 0.45 nM | binds | – | – | inhibition of HRG1-β1 induced pERK1/2, MCF-7 [14]: < 50 % inhibition; Kd [18]: 0.29 nM; kon [18]: 490000 M⁻¹ s⁻¹; % competition [19]: 98%; % competition [20]: 31%; % competition [21]: 0%; % competition [22]: 0%; % competition [23]: 0%; % competition [24]: 0%; IC50 [25]: 16.1 nM
B2 | – | – | – | – | – | – | – | – | – | – | – | – | – | – | – | – | – | – | 0.00017 s⁻¹ | 0.788 nM | –
B3 | – | – | – | – | – | – | – | – | – | – | – | – | – | – | – | – | – | – | 0.00019 s⁻¹ | 0.76 to 0.94 nM | –
B4 | – | – | – | – | – | – | – | – | – | – | – | – | – | – | – | – | – | – | 0.00018 s⁻¹ | 0.94 nM | –
B5 | – | – | – | – | – | – | – | – | – | – | – | – | – | – | – | – | – | – | 0.00018 s⁻¹ | 0.731 nM | –
B6 | – | – | – | – | – | – | – | – | – | – | – | – | – | – | – | – | – | – | 0.00084 s⁻¹ | 4.95 nM | –
B7 | – | – | – | – | – | – | – | – | – | – | – | – | – | – | – | – | – | – | – | – | IC50 [28]: 1.02 nM
B8 | – | – | – | – | – | – | – | – | – | – | – | – | – | – | – | – | – | – | – | – | IC50 [28]: 1 nM
B9 | no binding (tested: 2000 nM) | no binding (tested: 2000 nM) | no binding (tested: 2000 nM) | 154 | 60 | 436 | 347 | 149 | 149 | 133 | 256 | 120 | 1.53e-09 M | 1.8e-08 M | 8.04e-09 M | 0.29 nM | 0.29 nM | binds | – | – | IC50, HRG1-β1 induced pERK1/2, MCF-7 [14]: 8.98e-08 M; Kd [18]: 0.24 nM; kon [18]: 427000 M⁻¹ s⁻¹; % competition [19]: 100%; % competition [20]: 15%; % competition [21]: 0%; % competition [22]: 0%; % competition [23]: 0%; % competition [24]: 0%; IC50 [25]: 20.1 nM
B10 | no binding (tested: 2000 nM) | no binding (tested: 2000 nM) | no binding (tested: 2000 nM) | 66 | 52 | 51 | 51 | 110 | 117 | 59 | 73 | 242 | 4.51e-09 M | 2.46e-08 M | 5.78e-09 M | 1.02 nM | 1.15 nM | binds | – | – | IC50, HRG1-β1 induced pERK1/2, MCF-7 [14]: 2.78e-09 M; Kd [18]: 0.11 nM; kon [18]: 363000 M⁻¹ s⁻¹; % competition [19]: 100%; % competition [20]: 32%; % competition [21]: 0%; % competition [22]: 0%; % competition [23]: 5%; % competition [24]: 0%; IC50 [25]: 75.9 nM
